Columns and labels:
[1] = biological target: human P-cadherin–Fc fusion protein (human) (UniProt P22223); assay: cell adhesion assay
[2] = biological target: purified human IgG1 (human); assay: cell adhesion assay

Chain of human P-cadherin–Fc fusion protein (human) (P22223 108-654): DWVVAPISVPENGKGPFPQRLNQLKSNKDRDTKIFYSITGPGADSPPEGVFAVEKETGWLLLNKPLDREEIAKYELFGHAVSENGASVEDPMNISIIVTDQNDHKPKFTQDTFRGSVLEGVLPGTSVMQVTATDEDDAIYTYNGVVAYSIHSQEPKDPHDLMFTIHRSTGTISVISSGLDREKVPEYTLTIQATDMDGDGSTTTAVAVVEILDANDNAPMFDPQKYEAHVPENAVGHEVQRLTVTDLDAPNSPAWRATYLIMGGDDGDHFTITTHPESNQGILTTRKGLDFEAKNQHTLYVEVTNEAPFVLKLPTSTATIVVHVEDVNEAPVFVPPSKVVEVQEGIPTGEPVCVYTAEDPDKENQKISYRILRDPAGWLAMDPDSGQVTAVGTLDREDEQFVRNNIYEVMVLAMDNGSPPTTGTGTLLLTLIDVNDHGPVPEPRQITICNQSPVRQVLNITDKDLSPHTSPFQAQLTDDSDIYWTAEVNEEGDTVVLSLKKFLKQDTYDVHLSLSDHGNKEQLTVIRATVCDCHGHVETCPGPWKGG

| fold more coated fusion protein needed than of E-cadherin–Fc [1] [fold] | percent of cells adhering at 500 ng/well [1] [%] | percent of cells adhering [2] [%] | Substance |
| --- | --- | --- | --- |
| > 100 | 40 | – | integrin αEβ7 of cultured human intestinal intraepithelial lymphocytes (from UniProt P38570 19-1179; P26010 20-798) (complex) |
| – | – | < 3 | αEβ7 on JY′ cells transfected with full-length human αE (JY′-αE) (from UniProt P38570 19-1179; P26010 20-798) (complex) |
